Oligonucleotides are written 5' to 3', each unit as a sugar letter and its base; * is a phosphorothioate linkage, no mark a phosphodiester; rarer units and linkages stand in square brackets, end groups in braces. Plain capitals give the bases only. d = 2'-deoxy (DNA)
B1: 50-30 NP: asymmetric non-PAM strand ssDNA donor, EmGFP, SEQ ID 66 (nucleic acid)
DNA: CGGGGTAGCGGGCGAAGCACTGCACGCCGTAGGTGAAGGTGGTCACGAGGGTGGGCCAGGGCACGGGCAGCTTGCCGGTGG
modifications: chemistry not given here
B2: 48-50 NP: symmetric non-PAM strand ssDNA donor, EmGFP, SEQ ID 70 (nucleic acid)
DNA: GTGCTGCTTCATGTGGTCGGGGTAGCGGGCGAAGCACTGCACGCCGTAGGTGAAGGTGGCACGAGGGTGGGCCAGGGCACGGGCAGCTTGCCGGTGG
modifications: DNA, backbone and methylation of C not given here; further chemistry not fully specified
B3: 30-51 NP: asymmetric non-PAM strand ssDNA donor, EmGFP, SEQ ID 68 (nucleic acid)
DNA: GCTGCTTCATGTGGTCGGGGTAGCGGGCGAAGCACTGCACGCCGTAGGTGAAGGTGGTCACGAGGGTGGGCCAGGGCACGG
modifications: chemistry not given here
B4: 30-51 P: asymmetric PAM strand ssDNA donor, EmGFP, SEQ ID 67 (nucleic acid)
DNA: CCGTGCCCTGGCCCACCCTCGTGACCACCTTCACCTACGGCGTGCAGTGCTTCGCCCGCTACCCCGACCACATGAAGCAGC
modifications: chemistry not given here
B5: PS79: phosphorothioate 79-mer PAM ssDNA donor, EmGFP, SEQ ID 38 (nucleic acid)
DNA: CATGTGGTCGGGGTAGCGGGCGAAGCACTGCACGCCGTAGGTGAAGGTGGTCACGAGGGTGGGCCAGGGCACGGGCAGC
modifications: 5' phosphate, modified ends, chemistry not fully specified
B6: 79: unmodified 79-mer PAM ssDNA donor, EmGFP, SEQ ID 39 (nucleic acid)
DNA: B5 DNA
modifications: DNA, backbone not given here
B7: 24-3′: dsDNA donor with 24-base 3′ overhangs, annealed SEQ ID 89 and 90 (nucleic acid)
chain 1: dG*dA*dCdTdAdCdAdAdAdGdAdCdGdAdTdGdAdCdGdAdCdAdAdGdAdAdTdTdCdTdTdAdCdGdGdCdGdTdGdCdAdGdTdGdCdTdTdCdAdGdCdCdGdCdTdAdCdC*dC*dC
chain 2: dA*dA*dGdAdAdTdTdCdTdTdGdTdCdGdTdCdAdTdCdGdTdCdTdTdTdGdTdAdGdTdCdGdGdTdCdAdGdGdGdTdGdGdTdCdAdCdGdAdGdGdGdTdGdGdGdC*dC*dA
modifications: further chemistry not fully specified
B8: 36-3′: dsDNA donor with 36-base 3′ overhangs, annealed SEQ ID 93 and 94 (nucleic acid)
chain 1: dA*dA*dGdAdAdTdTdCdTdTdGdTdCdGdTdCdAdTdCdGdTdCdTdTdTdGdTdAdGdTdCdGdGdTdCdAdGdGdGdTdGdGdTdCdAdCdGdAdGdGdGdTdGdGdGdCdCdAdGdGdGdCdAdCdG*dG*dG
chain 2: dG*dA*dCdTdAdCdAdAdAdGdAdCdGdAdTdGdAdCdGdAdCdAdAdGdAdAdTdTdCdTdTdAdCdGdGdCdGdTdGdCdAdGdTdGdCdTdTdCdAdGdCdCdGdCdTdAdCdCdCdCdGdAdCdC*dA*dC
modifications: further chemistry not fully specified
B9: 50-30 P: asymmetric PAM strand ssDNA donor, EmGFP, SEQ ID 65 (nucleic acid)
DNA: CCACCGGCAAGCTGCCCGTGCCCTGGCCCACCCTCGTGACCACCTTCACCTACGGCGTGCAGTGCTTCGCCCGCTACCCCG
modifications: DNA, backbone and methylation of C not given here; further chemistry not fully specified

How the values were obtained:
[1] = system: disrupted EmGFP stable cell lines; assay: Homologous recombination (HDR) assay, gain of EmGFP function by flow cytometry; format: cell-based; conditions: for Avg (% GFP+ cells): sequential delivery
Description: The JUMP-IN™ system was used to prepare […]™ HEK293 stable cell expressing EmGFP (Thermo Fisher Scientific). The gene sequence of EmGFP is described in Table 5. To create a disrupted EmGFP mutant stable cell line, a gRNA targeting the 5′-[…]-3′ (SEQ ID NO: 125) sequence in EmGFP gene was synthesized. The resulting gRNA (300 ng) was incubated with 1.5 μg of GENEART® […]™ Cas9 nuclease and used to transfect wild type EmGFP cells via electroporation. The single cell clonal isolation was carried out by limiting dilution. The EmGFP loci from non-glowing cells were amplified by PCR using a forward primer 5′-[…]-3′ (SEQ ID NO: 126) and a reverse primer 5′-[…]-3′ (SEQ ID NO: 127) and the resulting PCR products were subjected to TOPO cloning and sequencing. From these clones, a disrupted EmGFP stable cell line containing a deletion of 5′-CACCTT-3′ (SEQ ID NO: 25) was identified (Table 5). In the homologous recombination assay, the gain of EmGFP function was determined by flow cytometric analysis.
(§1) To create homologous recombination (HR) assays, a series of gRNAs flanking the insertion site within the EmGFP gene were designed and synthesized (Table 4). Each individual gRNA was combined with GENEART™ […]™ Cas9 Nuclease to form the Cas9 protein/gRNA ribonucleoprotein complexes (Cas9 RNPs). The Cas9 RNPs were then used to transfect cells via NEON® electroporation. The genomic cleavage efficiency was then evaluated using the GENEART® Genomic Cleavage Detection kit at 48 hours post transfection. The gRNAs with highest editing efficiencies and also in close proximity to the insertion site were selected for the subsequent HR assays. For donor design of a single-stranded oligonucleotide, typically the mutation site was positioned at the center flanked by 30 to 50 nucleotides on each side. For asymmetric donor design, 30 nucleotides were placed on either the left or right arm and then 50 or 67 nucleotides on the right or left arm respectively, in both PAM and non-PAM strands. For design of a dsDNA oligonucleotide with single-stranded overhangs, the insertion element was overlapped in the center flanked by various lengths of ssDNA oligonucleotide on each side. By annealing two single-stranded oligonucleotides at 95° C. for 3 minutes, dsDNA donor molecules with either a 5′ protrusion or a 3′ protrusion were generated. To measure homologous recombination efficiency, the donor DNA was either co-transfected with Cas9 RNPs or delivered sequentially into cells via electroporation. At 48 hours post transfection, the gain of EmGFP function in reporter cell lines was determined by flow cytometric analysis with an Attune® NxT Acoustic Focusing Cytometer (Thermo Fisher Scientific). Alternatively, the genomic loci were PCR-amplified using the corresponding primers and then subjected to GENEART® Genomic Cleavage Detection assay or restriction digestion. The resulting PCR products were also subjected to TOPO cloning. Typically, 96 colonies were randomly picked for sequencing. The sequencing data were analyzed using VECTOR NTI ADVANCE® 11.5 software (Thermo Fisher Scientific).
For each homologous recombination assay, 1.5 μg of Cas9 protein and 360 ng of gRNA were added to Resuspension Buffer R to a final volume of 7 μl, but limiting the total volume of Cas9 protein plus gRNA to less than 1 μl. The gRNA could be diluted in Buffer R if the concentration was too high. Upon mixing, the sample was incubated at room temperature for 5 to 10 minutes to form Cas9 RNPs. Meanwhile, […]™ HEK293 cells expressing either eBFP or disrupted EmGFP were detached from culture flask with TRYPLE™ Express Enzyme and then counted. Aliquots of 1×10^6 cells were washed once with DPBS without Ca^2+ and Mg^2+ and the cell pellets were resuspended in 50 μl of Resuspension Buffer R. A 5 μl aliquot of cell suspension was mixed with 7 μl of Cas9 RNPs. […] The electroporated cells were transferred to 300 μl of […]. […]

[2] = system: eBFP locus in HEK293 cells expressing eBFP; assay: EcoRI restriction digestion of PCR-amplified eBFP locus (FLAG tag/EcoRI insertion); format: cell-based; conditions: FIG. 11B, length of 3′ overhang, 48 hours
Text: FIG. 11. Insertion of a FLAG tag along with an EcoRI site using dsDNA donor with single-stranded overhangs. (A) Various donor DNA molecules containing a 30-base FLAG tag along with an EcoRI site were designed and synthesized, including single-stranded DNA donor (ssDNA), blunt-end dsDNA donor (blunt), dsDNA donor with 5′ overhang (5′), dsDNA donor with 3′ overhang (3′). The length of overhangs varied from 6 nucleotides (6), 15 nucleotides (15) to 30 nucleotides (30). The 3′ and 5′ ends of the oligonucleotides harbored two consecutive phosphorothioate-modified bases (Table 4). The short dsDNA donors with and without overhangs were prepared by annealing two short DNA oligonucleotides. […] At 48 hours post transfection, the eBFP locus was PCR-amplified. The resulting PCR fragments were analyzed by the genomic cleavage and detection assays to determine the percentage of Indel or subjected to restriction digestion with EcoRI to determine the percentage of digestion. (B) Length of 3′ overhang. […] Alternatively, a dsDNA donor with 30-base 3′ overhang but without phosphorothioate modification (30-3′n) was used. The percentage of digestion with EcoRI was determined at 48 hours post transfection. (C) Dose effect. […] The eBFP loci were PCR-amplified. The resulting PCR fragments were analyzed by EcoRI digest. (D) Sequencing verification. The PCR fragments were cloned into E. coli and 192 clones were randomly picked for sequencing. The relative percentage of wild type (wt), NHEJ, and HDR clones derived from either ssDNA donor (ssDNA) or dsDNA with 3′ overhangs (3′ overhang) was plotted. The white rectangles represented the population of clones that contained the insert but with a point mutation. Examples of edited clones were shown in (E) (not representing the actual percentages of NHEJ and HDR). The underlined sequences represented the FLAG tag along with an RI site. FIG. 11 discloses SEQ ID NOs: 15-24, respectively, from top to bottom.
as §1, with “The sequencing data were analyzed using VECTOR NTI ADVANCE® 11.5 software (Thermo Fisher Scientific).” left out

[3] = Equal Mass of donor, +5 gRNA, 6 nt insertion
[4] = Equal Molarity of donor, +5 gRNA, 6 nt insertion

Molecule | Avg (% GFP+ cells) [1, 3] [%] | Avg (% GFP+ cells) [1, 4] [%] | Avg (% GFP+ cells) ([1]; (+3) gRNA, 10 pmol ssDNA donor) [%] | Avg (% GFP+ cells) ([1]; (+5) gRNA, 10 pmol ssDNA donor) [%] | Avg (% GFP+ cells) ([1]; (−3) gRNA, 10 pmol ssDNA donor) [%] | other results
40: unmodified 40-mer PAM ssDNA donor, EmGFP, SEQ ID 43 (DNA GGCGAAGCACTGCACGCCGTAGGTGAAGGTGGTCACGAGG; DNA, backbone not given here) [compound 40] | 2.96 | 1.38 | – | – | – | –
PS40: phosphorothioate 40-mer PAM ssDNA donor, EmGFP, SEQ ID 42 (DNA GGCGAAGCACTGCACGCCGTAGGTGAAGGTGGTCACGAGG; 5' phosphate, chemistry not fully specified) | 4.35 | 1.79 | – | – | – | –
B1 | – | – | 4.1 | 30.8 | 30.0 | –
B2 | – | – | 9.5 | 26.0 | 18.3 | Avg (% GFP+ cells), normalized HDR efficiency (% EmGFP+ cells/% Indel) ([1]; (+5)gRNA): 38.2%; Avg (% GFP+ cells), normalized HDR efficiency (% EmGFP+ cells/% Indel) ([1]; (−3)gRNA): 26.1%
B3 | – | – | 11.3 | 20.6 | 23.7 | –
B4 | – | – | 4.0 | 30.6 | 34.7 | –
B5 | 12.94 | 12.53 | – | – | – | –
B6 | 7.99 | 7.62 | – | – | – | –
B7 | – | – | – | – | – | Avg (% digestion) [2]: 17.3%; Avg (% digestion) ([2]; listed as donor DNA molecules with 24-base 3′-protruded ends): approximately 15%
B8 | – | – | – | – | – | Avg (% digestion) [2]: 41.7%
B9 | – | – | 8.7 | 19.7 | 24.6 | –

Reference: patent publication US10428327B2, “Compositions and methods for enhancing homologous recombination” (LIFE TECHNOLOGIES CORPORATION, priority 2016, dated 2019)
